T1: His-tagged FrzCD full-length protein (M. xanthus, UniProt P43500 1-417)
T1 sequence (looked up): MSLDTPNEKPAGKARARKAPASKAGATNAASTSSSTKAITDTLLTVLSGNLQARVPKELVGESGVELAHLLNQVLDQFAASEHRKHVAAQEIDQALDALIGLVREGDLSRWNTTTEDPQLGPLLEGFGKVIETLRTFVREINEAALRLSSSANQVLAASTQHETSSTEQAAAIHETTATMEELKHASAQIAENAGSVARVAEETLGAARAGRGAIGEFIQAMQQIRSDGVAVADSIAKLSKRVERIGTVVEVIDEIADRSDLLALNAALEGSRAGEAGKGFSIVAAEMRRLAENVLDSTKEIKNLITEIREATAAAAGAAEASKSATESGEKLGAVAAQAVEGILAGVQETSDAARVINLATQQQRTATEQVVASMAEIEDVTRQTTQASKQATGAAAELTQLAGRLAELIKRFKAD

B1: AglZ^Rec (domain or fragment, M. xanthus, UniProt Q1D823 2-240, looked up)
chain: ERRVLIVESEHDFALSMATVLKGAGYQTALAETAADAQRELEKRRPDLVVLRAELKDQSGFVLCGNIKKGKWGQNLKVLLLSSESGVDGLAQHRQTPQAADGYLAIPFEMGELAALSHGIVPPGTDDTGASLDAALNGTREAPPPMPPSLKAAAGGPPKLPKRERRSAMTEEDRAFLDRTFQSIADRKAELLAESRQLKRPPPRRELMGTPEGKIQILRDELKTREAQLARLSEIWNVR
B2: FrzCD^N-ter (domain or fragment, M. xanthus, UniProt P43500 2-135, looked up)
chain: SLDTPNEKPAGKARARKAPASKAGATNAASTSSSTKAITDTLLTVLSGNLQARVPKELVGESGVELAHLLNQVLDQFAASEHRKHVAAQEIDQALDALIGLVREGDLSRWNTTTEDPQLGPLLEGFGKVIETLR
B3: FrzCD^C-ter (domain or fragment, M. xanthus, UniProt P43500 132-417, looked up)
chain: ETLRTFVREINEAALRLSSSANQVLAASTQHETSSTEQAAAIHETTATMEELKHASAQIAENAGSVARVAEETLGAARAGRGAIGEFIQAMQQIRSDGVAVADSIAKLSKRVERIGTVVEVIDEIADRSDLLALNAALEGSRAGEAGKGFSIVAAEMRRLAENVLDSTKEIKNLITEIREATAAAAGAAEASKSATESGEKLGAVAAQAVEGILAGVQETSDAARVINLATQQQRTATEQVVASMAEIEDVTRQTTQASKQATGAAAELTQLAGRLAELIKRFKAD

Columns and labels:
Assay in all cases: cross-linking
[1] = target: T1, His-tagged FrzCD full-length protein
AglZ^Rec = target: B1
cross-linking = target: the molecule itself

Row | Binder | binding result [1] | binding result (AglZ^Rec) | binding result (cross-linking)
1 | B1 | binds | – | –
2 | B2 | – | binds | binds
3 | B3 | – | – | binds

Reference: paper PMC4098657 (Molecular microbiology, 2009)
